Measurements taken from the supplement of paper PMC7877785.
± gives the uncertainty stated by the source.

Assay: self-splicing fitness, log relative to wild type (ln ratio); higher = more splicing; Tetrahymena group I intron in knt gene, E. coli kanamycin selection, DiMSum; sequences stand for … in CUCUCU…GGAGGGAAAAGUUAUCAGGCAUGCACCUGGUAGCUAGUCUUUAAACCAAUAGAUUGCAUCGGUUUAAAAGGCAAGACCGUCAAAUUGCGGGAAAGGGGUCAACAGCCGUUCAGUACCAAGUCUCAGGGGAAACUUUGAGAUGGCCUUGCAAAGGGUAUGGUAAUAAGCUGACGGACAUGGUCCUAACCACGCAGCCAAGUCCUAAGUCAACAGAUCUUCUGUUGAUAUGGAUGCAGUUCACAGACUAAAUGUCGGUCGGGGAAGAUGUAUUCUUCUCAUAAGAUAUAGUCGGACCUCUCCUUAAUGGGAGCUAGCGGAUGAAGUGAUGCAACACUGGAGCCGCUGGGAACUAAUUUGUAUGCGAAAGUAUAUUGAUUAGUUUUGGAGUACUCGUGGUCG
Method in brief: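 DiMSum derived fitness as the error-weighted combination of fold changes across replicates, kanamycin versus no kanamycin, normalised to wild type. E. coli BL21(DE3) held the library, which randomised all eight P1ex-region intron nucleotides within the knt kanamycin-resistance gene on pET-22b(+). Six replicate transformations grew overnight at 37°C or 30°C on LB agar with or without 25 μg/mL kanamycin, also containing 100 μg/mL carbenicillin, 50 μM IPTG and 0.2% rhamnose, and pooled colonies were amplicon-sequenced on an Illumina HiSeq 2500.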

Sequence	self-splicing fitness (ln) (30 °C)	self-splicing fitness (ln) (37 °C)
UAAAAGCAAUAUUACGGUAG	-1.14 ± 0.086	-0.722 ± 0.097
UAAAAGCAAUAUUACGGUGC	-3.65 ± 0.42	-2.92 ± 0.35
UAAAAGCAAUAUUACGUCAG	-1.56 ± 0.074	-0.962 ± 0.097
UAAAAGCAAUAUUACGUCGA	-1.39 ± 0.1	-0.424 ± 0.12
UAAAAGCAAUAUUACGUCGC	-3.18 ± 0.24	-2.44 ± 0.36
UAACAGCAAUAUUACGAGCC	-2.65 ± 0.24	-2.24 ± 0.49
UAACAGCAAUAUUACGAGGC	-3.62 ± 0.2	-1.97 ± 0.18
UAACAGCAAUAUUACGAUCA	-0.292 ± 0.074	0.115 ± 0.07
UAACAGCAAUAUUACGAUCC		-2.04 ± 0.42
UAACAGCAAUAUUACGAUGA	-1.01 ± 0.078	-0.269 ± 0.088
UAACAGCAAUAUUACGCAGU	-3.43 ± 0.19	-3.5 ± 0.27
UAACAGCAAUAUUACGCGUA	-0.931 ± 0.063	-0.365 ± 0.067
UAACAGCAAUAUUACGCGUC	-4.61 ± 0.34	-2.7 ± 0.18
UAACAGCAAUAUUACGCUGG	-3.29 ± 0.17	-2.42 ± 0.21
UAACAGCAAUAUUACGGAAG	-2.59 ± 0.12	-1.93 ± 0.12
UAACAGCAAUAUUACGGAAU	-3.31 ± 0.14	-2.24 ± 0.15
UAACAGCAAUAUUACGGCCG	-0.568 ± 0.078	0.226 ± 0.12
UAACAGCAAUAUUACGGGCU	-4.01 ± 0.21	-2.3 ± 0.16
UAACAGCAAUAUUACGGUGA	-1.08 ± 0.075	-0.658 ± 0.082
UAACAGCAAUAUUACGUAGG	-2.08 ± 0.065	-1.65 ± 0.079
UAACAGCAAUAUUACGUCGC	-3.59 ± 0.38	-2.73 ± 0.44
UAACAGCAAUAUUACGUCUC	-3.01 ± 0.12	-3.02 ± 0.2
UAACAGCAAUAUUACGUGAU	-2.4 ± 0.12	-1.7 ± 0.17
UAAGAGCAAUAUUACGAGUU	-3.16 ± 0.14	-2.87 ± 0.23
UAAGAGCAAUAUUACGAUUG	-1.72 ± 0.11	-0.83 ± 0.12

Sequence	self-splicing fitness (ln) (30 °C)	self-splicing fitness (ln) (37 °C)
UAAGAGCAAUAUUACGCAGA	-2.62 ± 0.18	-2.24 ± 0.23
UAAGAGCAAUAUUACGCCAC	-2.07 ± 0.22	-1.59 ± 0.29
UAAGAGCAAUAUUACGCCUU	-3.87 ± 0.25	-2.89 ± 0.48
UAAGAGCAAUAUUACGCGCA	-1.81 ± 0.2	-1.16 ± 0.3
UAAGAGCAAUAUUACGCUGG	-2.31 ± 0.26	-2.37 ± 0.27
UAAGAGCAAUAUUACGGCCU	-1.36 ± 0.47	
UAAGAGCAAUAUUACGGCGA	-2.7 ± 0.32	-2.09 ± 0.26
UAAGAGCAAUAUUACGGUCA	-1.77 ± 0.18	-2.52 ± 0.17
UAAGAGCAAUAUUACGGUCG	-2.81 ± 0.16	-1.85 ± 0.15
UAAGAGCAAUAUUACGUAGU	-3.21 ± 0.19	-2.32 ± 0.26
UAAGAGCAAUAUUACGUCAC	-2.67 ± 0.3	-2.04 ± 0.34
UAAGAGCAAUAUUACGUGUC	-3.09 ± 0.21	-0.977 ± 0.17
UAAGAGCAAUAUUACGUUGG	-2.87 ± 0.28	
UAAUAGCAAUAUUACGAAUA	-2.51 ± 0.34	-1.28 ± 0.17
UAAUAGCAAUAUUACGACGA	-1.41 ± 0.13	-1.15 ± 0.14
UAAUAGCAAUAUUACGACUG	-0.137 ± 0.062	0.0819 ± 0.078
UAAUAGCAAUAUUACGAUCG	0.121 ± 0.076	0.472 ± 0.099
UAAUAGCAAUAUUACGAUGA	-2.56 ± 0.19	-1.48 ± 0.16
UAAUAGCAAUAUUACGCAGG	-1.82 ± 0.1	-1.48 ± 0.14
UAAUAGCAAUAUUACGCAUA	-1.13 ± 0.18	-0.681 ± 0.15
UAAUAGCAAUAUUACGCCAA		-2.37 ± 0.26
UAAUAGCAAUAUUACGCCAC	-1.32 ± 0.19	-1.89 ± 0.44
UAAUAGCAAUAUUACGCUGA	-2.81 ± 0.28	-1.23 ± 0.15
UAAUAGCAAUAUUACGGACG	-0.227 ± 0.12	0.175 ± 0.15
UAAUAGCAAUAUUACGGAUU	-2.69 ± 0.36	-1.02 ± 0.28

Sequence	self-splicing fitness (ln) (30 °C)	self-splicing fitness (ln) (37 °C)
UAAUAGCAAUAUUACGGUGA	-3.61 ± 0.3	-2.39 ± 0.26
UAAUAGCAAUAUUACGUCGG	-2.21 ± 0.11	-1.49 ± 0.14
UAAUAGCAAUAUUACGUGUU	-1.68 ± 0.14	-1.97 ± 0.17
UAAUAGCAAUAUUACGUUAA	-3.02 ± 0.23	-2.53 ± 0.19
UACAAGCAAUAUUACGAGUG	-1.35 ± 0.064	-0.768 ± 0.071
UACAAGCAAUAUUACGAUGA	-0.422 ± 0.072	-0.314 ± 0.085
UACAAGCAAUAUUACGCCCU	-0.317 ± 0.085	-0.111 ± 0.12
UACAAGCAAUAUUACGCCGC		-2.06 ± 0.43
UACAAGCAAUAUUACGCCGG	-1.53 ± 0.11	-0.146 ± 0.18
UACAAGCAAUAUUACGCCUG	-0.585 ± 0.081	0.17 ± 0.11
UACAAGCAAUAUUACGCGCG	-0.759 ± 0.088	0.0647 ± 0.1
UACAAGCAAUAUUACGGAGU	-4.15 ± 0.29	-1.71 ± 0.16
UACAAGCAAUAUUACGGCGC	-1.51 ± 0.085	-0.801 ± 0.099
UACAAGCAAUAUUACGGGGG	-2.66 ± 0.14	-2.02 ± 0.13
UACAAGCAAUAUUACGGUUG	-2.1 ± 0.11	-1.91 ± 0.15
UACAAGCAAUAUUACGUAAA	-2.45 ± 0.073	-1.38 ± 0.087
UACAAGCAAUAUUACGUAGA	-2.84 ± 0.14	-1.46 ± 0.13
UACAAGCAAUAUUACGUAGC	-3.5 ± 0.18	-2.09 ± 0.2
UACAAGCAAUAUUACGUAUG	-3.68 ± 0.17	-2.11 ± 0.14
UACAAGCAAUAUUACGUCUU	-3.55 ± 0.17	-1.68 ± 0.13
UACAAGCAAUAUUACGUGGC	-3 ± 0.14	-1.94 ± 0.22
UACAAGCAAUAUUACGUUCA	-0.621 ± 0.052	-0.478 ± 0.069
UACAAGCAAUAUUACGUUCG	-0.617 ± 0.074	0.321 ± 0.099
UACAAGCAAUAUUACGUUCU	-1.28 ± 0.12	-0.681 ± 0.12
UACCAGCAAUAUUACGAAAC	-2.69 ± 0.23	-2.14 ± 0.27

Sequence	self-splicing fitness (ln) (30 °C)	self-splicing fitness (ln) (37 °C)
UACCAGCAAUAUUACGAAGG	-2.22 ± 0.11	-0.865 ± 0.12
UACCAGCAAUAUUACGAAGU	-2.48 ± 0.22	-2.74 ± 0.28
UACCAGCAAUAUUACGAGUU	-1.28 ± 0.073	-0.876 ± 0.076
UACCAGCAAUAUUACGCCAC	-3.59 ± 0.2	-3.17 ± 0.37
UACCAGCAAUAUUACGCCCA	-0.817 ± 0.1	-0.342 ± 0.14
UACCAGCAAUAUUACGCGCC	-1.46 ± 0.12	-1.1 ± 0.2
UACCAGCAAUAUUACGCGUA	-1.9 ± 0.074	-1.67 ± 0.093
UACCAGCAAUAUUACGGAAC	-3.57 ± 0.44	-3.27 ± 0.27
UACCAGCAAUAUUACGGGAA	-0.38 ± 0.087	-0.618 ± 0.08
UACCAGCAAUAUUACGGGGA	-1.24 ± 0.083	-0.746 ± 0.083
UACCAGCAAUAUUACGGGUA	-3.45 ± 0.14	-3.02 ± 0.15
UACCAGCAAUAUUACGGUGC	-3.21 ± 0.12	-2.64 ± 0.2
UACCAGCAAUAUUACGUAAG	-3.73 ± 0.15	-1.99 ± 0.15
UACCAGCAAUAUUACGUAGA	-1.27 ± 0.072	-0.78 ± 0.091
UACCAGCAAUAUUACGUAUG	-2.62 ± 0.073	-1.58 ± 0.082
UACCAGCAAUAUUACGUCAA	-1.19 ± 0.079	-0.33 ± 0.086
UACCAGCAAUAUUACGUCCG	-0.95 ± 0.058	-0.0389 ± 0.083
UACCAGCAAUAUUACGUGGA	-2.89 ± 0.15	-2.08 ± 0.12
UACGAGCAAUAUUACGAAGG		-0.765 ± 0.3
UACGAGCAAUAUUACGAGAU	-3.99 ± 0.46	-2.99 ± 0.38
UACGAGCAAUAUUACGAGGU	-3.41 ± 0.19	-3.16 ± 0.17
UACGAGCAAUAUUACGAGUC	-2.81 ± 0.38	-3.01 ± 0.43
